What was measured:
HeLa Kyoto [1] = assay: solubility in G1/S (NP-40 vs SDS abundance) (log2 ratio); higher = more soluble; settings: cell cycle stage: G1/S
HeLa Kyoto [2] = assay: thermal stability score vs G1/S (z-score of summed log2 fold changes over temperatures); higher = more thermally stable than in G1/S
HeLa Kyoto [3] = assay: solubility change mitosis vs G1/S (difference of NP-40 vs SDS log2 ratios) (log2 ratio difference); higher = more soluble in mitosis
HeLa Kyoto [4] = assay: melting temperature (median over replicates), in situ; higher = more thermally stable
[5] = cell cycle stage: early G1 (4.5 h after nocodazole release)
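For melting temperature (median over replicates), in situ in this document: HeLa Kyoto cells synchronized by double thymidine or nocodazole block, proteins quantified by TMT10plex mass spectrometry, three independent biological replicates.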
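For solubility change mitosis vs G1/S (difference of NP-40 vs SDS log2 ratios) in this document: synchronized HeLa Kyoto cells (double thymidine block for G1/S, nocodazole release for mitosis), protein amounts in NP-40 versus SDS lysates quantified by mass spectrometry, three biological replicates.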
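For solubility in G1/S (NP-40 vs SDS abundance) in this document: HeLa Kyoto cells arrested at G1/S by double thymidine block, proteins quantified by TMT10plex mass spectrometry in mild NP-40 versus SDS extracts, three biological replicates.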
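For thermal stability score vs G1/S (z-score of summed log2 fold changes over temperatures) in this document: synchronized HeLa Kyoto cells, proteins quantified by TMT10plex mass spectrometry, three biological replicates, mitosis taken 0.5 h after nocodazole release, G1/S directly after double thymidine block.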

Sequence of OXSM (chain, as listed by the source): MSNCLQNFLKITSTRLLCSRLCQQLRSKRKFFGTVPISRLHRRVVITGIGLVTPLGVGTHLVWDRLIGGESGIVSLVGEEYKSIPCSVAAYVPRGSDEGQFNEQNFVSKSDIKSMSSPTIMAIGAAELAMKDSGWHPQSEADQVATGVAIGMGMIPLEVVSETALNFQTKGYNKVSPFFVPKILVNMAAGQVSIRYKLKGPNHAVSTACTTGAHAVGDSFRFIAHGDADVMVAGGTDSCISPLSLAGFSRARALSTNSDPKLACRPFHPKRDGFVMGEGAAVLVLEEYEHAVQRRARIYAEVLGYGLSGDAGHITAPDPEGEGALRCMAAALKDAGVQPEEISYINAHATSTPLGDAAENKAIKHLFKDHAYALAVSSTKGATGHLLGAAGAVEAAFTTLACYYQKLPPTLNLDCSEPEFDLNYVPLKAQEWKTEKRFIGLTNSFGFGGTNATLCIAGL

Substance	solubility in G1/S (log2) (HeLa Kyoto [1])	thermal stability score (HeLa Kyoto [2]; [5])	thermal stability score (HeLa Kyoto [2]; cell cycle stage: mitosis)	solubility change mitosis (log2) (HeLa Kyoto [3])	melting temperature (HeLa Kyoto [4]; cell cycle stage: G1/S) [°C]	melting temperature (HeLa Kyoto [4]; cell cycle stage: mitosis) [°C]
MASQPNSSAKKKEEKGKNIQVVVRCRPFNLAERKASAHSIVECDPVRKEVSVRTGGLADKSSRKTYTFDMVFGASTKQIDVYRSVVCPILDEVIMGYNCTIFAYGQTGTGKTFTMEGERSPNEEYTWEEDPLAGIIPRTLHQIFEKLTDNGTEFSVKVSLLEIYNEELFDLLNPSSDVSERLQMFDDPRNKRGVIIKGLEEITVHNKDEVYQILEKGAAKRTTAATLMNAYSSRSHSVFSVTIHMKETTIDGEELVKIGKLNLVDLAGSENIGRSGAVDKRAREAGNINQSLLTLGRVITALVERTPHVPYRESKLTRILQDSLGGRTRTSIIATISPASLNLEETLSTLEYAHRAKNILNKPEVNQKLTKKALIKEYTEEIERLKRDLAAAREKNGVYISEENFRVMSGKLTVQEEQIVELIEKIGAVEEELNRVTELFMDNKNELDQCKSDLQNKTQELETTQKHLQETKLQLVKEEYITSALESTEEKLHDAASKLLNTVEETTKDVSGLHSKLDRKKAVDQHNAEAQDIFGKNLNSLFNNMEELIKDGSSKQKAMLEVHKTLFGNLLSSSVSALDTITTVALGSLTSIPENVSTHVSQIFNMILKEQSLAAESKTVLQELINVLKTDLLSSLEMILSPTVVSILKINSQLKHIFKTSLTVADKIEDQKKELDGFLSILCNNLHELQENTICSLVESQKQCGNLTEDLKTIKQTHSQELCKLMNLWTERFCALEEKCENIQKPLSSVQENIQQKSKDIVNKMTFHSQKFCADSDGFSQELRNFNQEGTKLVEESVKHSDKLNGNLEKISQETEQRCESLNTRTVYFSEQWVSSLNEREQELHNLLEVVSQCCEASSSDITEKSDGRKAAHEKQHNIFLDQMTIDEDKLIAQNLELNETIKIGLTKLNCFLEQDLKLDIPTGTTPQRKSYLYPSTLVRTEPREHLLDQLKRKQPELLMMLNCSENNKEETIPDVDVEEAVLGQYTEEPLSQEPSVDAGVDCSSIGGVPFFQHKKSHGKDKENRGINTLERSKVEETTEHLVTKSRLPLRAQINL [KIF11]	-0.0398	6	5.17	-0.143	48.2	49
MSESSSKSSQPLASKQEKDGTEKRGRGRPRKQPPVSPGTALVGSQKEPSEVPTPKRPRGRPKGSKNKGAAKTRKTTTTPGRKPRGRPKKLEKEEEEGISQESSEEEQ [HMGA1]	0.583	-6.52	-8.11	1.62	–	57.6
MNFRQLLLHLPRYLGASGSPRRLWWSPSLDTISSVGSWRGRSSKSPAHWNQVVSEAEKIVGYPTSFMSLRCLLSDELSNIAMQVRKLVGTQHPLLTTARGLVHDSWNSLQLRGLVVLLISKAAGPSSVNTSCQNYDMVSGIYSCQRSLAEITELIHIALLVHRGIVNLNELQSSDGPLKDMQFGNKIAILSGDFLLANACNGLALLQNTKVVELLASALMDLVQGVYHENSTSKESYITDDIGISTWKEQTFLSHGALLAKSCQAAMELAKHDAEVQNMAFQYGKHMAMSHKINSDVQPFIKEKTSDSMTFNLNSAPVVLHQEFLGRDLWIKQIGEAQEKGRLDYAKLRERIKAGKGVTSAIDLCRYHGNKALEALESFPPSEARSALENIVFAVTRFS [PDSS2]	0.217	0.42	-0.202	0.169	53.5	54.1
MKAFHTFCVVLLVFGSVSEAKFDDFEDEEDIVEYDDNDFAEFEDVMEDSVTESPQRVIITEDDEDETTVELEGQDENQEGDFEDADTQEGDTESEPYDDEEFEGYEDKPDTSSSKNKDPITIVDVPAHLQNSWESYYLEILMVTGLLAYIMNYIIGKNKNSRLAQAWFNTHRELLESNFTLVGDDGTNKEATSTGKLNQENEHIYNLWCSGRVCCEGMLIQLRFLKRQDLLNVLARMMRPVSDQVQIKVTMNDEDMDTYVFAVGTRKALVRLQKEMQDLSEFCSDKPKSGAKYGLPDSLAILSEMGEVTDGMMDTKMVHFLTHYADKIESVHFSDQFSGPKIMQEEGQPLKLPDTKRTLLFTFNVPGSGNTYPKDMEALLPLMNMVIYSIDKAKKFRLNREGKQKADKNRARVEENFLKLTHVQRQEAAQSRREEKKRAEKERIMNEEDPEKQRRLEEAALRREQKKLEKKQMKMKQIKVKAM [CCDC47]	-0.0628	0.286	-1.13	0.000886	52.9	52.7
MSLLFSRCNSIVTVKKNKRHMAEVNASPLKHFVTAKKKINGIFEQLGAYIQESATFLEDTYRNAELDPVTTEEQVLDVKGYLSKVRGISEVLARRHMKVAFFGRTSNGKSTVINAMLWDKVLPSGIGHTTNCFLRVEGTDGHEAFLLTEGSEEKRSAKTVNQLAHALHQDKQLHAGSLVSVMWPNSKCPLLKDDLVLMDSPGIDVTTELDSWIDKFCLDADVFVLVANSESTLMQTEKHFFHKVSERLSRPNIFILNNRWDASASEPEYMEEVRRQHMERCTSFLVDELGVVDRSQAGDRIFFVSAKEVLNARIQKAQGMPEGGGALAEGFQVRMFEFQNFERRFEECISQSAVKTKFEQHTVRAKQIAEAVRLIMDSLHMAAREQQVYCEEMREERQDRLKFIDKQLELLAQDYKLRIKQITEEVERQVSTAMAEEIRRLSVLVDDYQMDFHPSPVVLKVYKNELHRHIEEGLGRNMSDRCSTAITNSLQTMQQDMIDGLKPLLPVSVRSQIDMLVPRQCFSLNYDLNCDKLCADFQEDIEFHFSLGWTMLVNRFLGPKNSRRALMGYNDQVQRPIPLTPANPSMPPLPQGSLTQEEFMVSMVTGLASLTSRTSMGILVVGGVVWKAVGWRLIALSFGLYGLLYVYERLTWTTKAKERAFKRQFVEHASEKLQLVISYTGSNCSHQVQQELSGTFAHLCQQVDVTRENLEQEIAAMNKKIEVLDSLQSKAKLLRNKAGWLDSELNMFTHQYLQPSR [MFN2]	-0.174	1.32	0.83	-0.043	50.8	51.3
MAAPALGLVCGRCPELGLVLLLLLLSLLCGAAGSQEAGTGAGAGSLAGSCGCGTPQRPGAHGSSAAAHRYSREANAPGPVPGERQLAHSKMVPIPAGVFTMGTDDPQIKQDGEAPARRVTIDAFYMDAYEVSNTEFEKFVNSTGYLTEAEKFGDSFVFEGMLSEQVKTNIQQAVAAAPWWLPVKGANWRHPEGPDSTILHRPDHPVLHVSWNDAVAYCTWAGKRLPTEAEWEYSCRGGLHNRLFPWGNKLQPKGQHYANIWQGEFPVTNTGEDGFQGTAPVDAFPPNGYGLYNIVGNAWEWTSDWWTVHHSVEETLNPKGPPSGKDRVKKGGSYMCHRSYCYRYRCAARSQNTPDSSASNLGFRCAADRLPTMD [SUMF1]	0.277	-1.37	2.23	0.0674	53.7	55.1
OXSM	-0.149	0.339	-0.889	-0.0154	58.8	61.2
CAD	-0.137	-0.499	0.0146	-0.146	50.6	50
MDSDDEMVEEAVEGHLDDDGLPHGFCTVTYSSTDRFEGNFVHGEKNGRGKFFFFDGSTLEGYYVDDALQGQGVYTYEDGGVLQGTYVDGELNGPAQEYDTDGRLIFKGQYKDNIRHGVCWIYYPDGGSLVGEVNEDGEMTGEKIAYVYPDERTALYGKFIDGEMIEGKLATLMSTEEGRPHFELMPGNSVYHFDKSTSSCISTNALLPDPYESERVYVAESLISSAGEGLFSKVAVGPNTVMSFYNGVRITHQEVDSRDWALNGNTLSLDEETVIDVPEPYNHVSKYCASLGHKANHSFTPNCIYDMFVHPRFGPIKCIRTLRAVEADEELTVAYGYDHSPPGKSGPEAPEWYQVELKAFQATQQK [SETD7]	-0.127	1.42	2.54	-0.119	48.7	50.5
MHGRLKVKTSEEQAEAKRLEREQKLKLYQSATQAVFQKRQAGELDESVLELTSQILGANPDFATLWNCRREVLQQLETQKSPEELAALVKAELGFLESCLRVNPKSYGTWHHRCWLLGRLPEPNWTRELELCARFLEVDERNFHCWDYRRFVATQAAVPPAEELAFTDSLITRNFSNYSSWHYRSCLLPQLHPQPDSGPQGRLPEDVLLKELELVQNAFFTDPNDQSAWFYHRWLLGRADPQDALRCLHVSRDEACLTVSFSRPLLVGSRMEILLLMVDDSPLIVEWRTPDGRNRPSHVWLCDLPAASLNDQLPQHTFRVIWTAGDVQKECVLLKGRQEGWCRDSTTDEQLFRCELSVEKSTVLQSELESCKELQELEPENKWCLLTIILLMRALDPLLYEKETLQYFQTLKAVDPMRATYLDDLRSKFLLENSVLKMEYAEVRVLHLAHKDLTVLCHLEQLLLVTHLDLSHNRLRTLPPALAALRCLEVLQASDNAIESLDGVTNLPRLQELLLCNNRLQQPAVLQPLASCPRLVLLNLQGNPLCQAVGILEQLAELLPSVSSVLT [RABGGTA]	0.0201	-0.496	-1.06	-0.067	53.8	53.3
CEP170	-0.112	0.653	2.64	0.0625	50.3	51.5
MAAAALGSSSGSASPAVAELCQNTPETFLEASKLLLTYADNILRNPNDEKYRSIRIGNTAFSTRLLPVRGAVECLFEMGFEEGETHLIFPKKASVEQLQKIRDLIAIERSSRLDGSNKSHKVKSSQQPAASTQLPTTPSSNPSGLNQHTRNRQGQSSDPPSASTVAADSAILEVLQSNIQHVLVYENPALQEKALACIPVQELKRKSQEKLSRARKLDKGINISDEDFLLLELLHWFKEEFFHWVNNVLCSKCGGQTRSRDRSLLPSDDELKWGAKEVEDHYCDACQFSNRFPRYNNPEKLLETRCGRCGEWANCFTLCCRAVGFEARYVWDYTDHVWTEVYSPSQQRWLHCDACEDVCDKPLLYEIGWGKKLSYVIAFSKDEVVDVTWRYSCKHEEVIARRTKVKEALLRDTINGLNKQRQLFLSENRRKELLQRIIVELVEFISPKTPKPGELGGRISGSVAWRVARGEMGLQRKETLFIPCENEKISKQLHLCYNIVKDRYVRVSNNNQTISGWENGVWKMESIFRKVETDWHMVYLARKEGSSFAYISWKFECGSVGLKVDSISIRTSSQTFQTGTVEWKLRSDTAQVELTGDNSLHSYADFSGATEVILEAELSRGDGDVAWQHTQLFRQSLNDHEENCLEIIIKFSDL [NGLY1]	-0.124	-0.157	-0.401	-0.0564	57.5	50.3
MALLSEGLDEVPAACLSPCGPPNPTELFSESRRLALEELVAGGPEAFAAFLRRERLARFLNPDEVHAILRAAERPGEEGAAAAAAAEDSFGSSHDCSSGTYFPEQSDLEPPLLELGWPAFYQGAYRGATRVETHFQPRGAGEGGPYGCKDALRQQLRSAREVIAVVMDVFTDIDIFRDLQEICRKQGVAVYILLDQALLSQFLDMCMDLKVHPEQEKLMTVRTITGNIYYARSGTKIIGKVHEKFTLIDGIRVATGSYSFTWTDGKLNSSNLVILSGQVVEHFDLEFRILYAQSKPISPKLLSHFQSSNKFDHLTNRKPQSKELTLGNLLRMRLARLSSTPRKADLDPEMPAEGKAERKPHDCESSTVSEEDYFSSHRDELQSRKAIDAATQTEPGEEMPGLSVSEVGTQTSITTACAGTQTAVITRIASSQTTIWSRSTTTQTDMDENILFPRGTQSTEGSPVSKMSVSRSSSLKSSSSVSSQGSVASSTGSPASIRTTDFHNPGYPKYLGTPHLELYLSDSLRNLNKERQFHFAGIRSRLNHMLAMLSRRTLFTENHLGLHSGNFSRVNLLAVRDVALYPSYQ [FAM83D]	-0.213	0.13	-0.391	-0.133	49.8	49.4
